Laboratory results as given in patent US20200165325A1.

Experiments:
[1] = molecular target: HIV-1 Env of strain 62357_14_D3_4589 (HIV-1)
[2] = molecular target: HIV-1 Env of strain 620345.c01 (HIV-1)
[3] = molecular target: HIV-1 Env of strain PVO.4 (HIV-1)
[4] = molecular target: HIV-1 Env of strain R1166.c01 (HIV-1)
[5] = molecular target: HIV-1 Env of strain C1080.c03 (HIV-1)
[6] = molecular target: HIV-1 Env of strain 89-F1_2_25 (HIV-1)
[7] = molecular target: HIV-1 Env of strain X1254_c3 (HIV-1)
[8] = molecular target: HIV-1 Env of strain Du422.1 (HIV-1)
[9] = molecular target: HIV-1 Env of strain CAP210.2.00.E8 (HIV-1)
[10] = molecular target: HIV-1 Env of strain Ce0682_E4 (HIV-1)
[11] = molecular target: HIV-1 Env of strain TRO.11 (HIV-1)
[12] = molecular target: HIV-1 Env of strain C2101.c01 (HIV-1)
[13] = molecular target: HIV-1 Env of strain R2184.c04 (HIV-1)
[14] = molecular target: HIV-1 Env of strain ZM214M.PL15 (HIV-1)
[15] = molecular target: HIV-1 Env of strain Q23.17 (HIV-1)
[16] = molecular target: HIV-1 Env of strain 3301.v1.c24 (HIV-1)
[17] = molecular target: HIV-1 Env of strain 6545.v4.c1 (HIV-1)
[18] = molecular target: HIV-1 Env of strain ZM135M.PL10a (HIV-1)
[19] = molecular target: HIV-1 Env of strain T257-31 (HIV-1)
[20] = molecular target: HIV-1 Env of strain 1006_11_C3_1601 (HIV-1)
[21] = molecular target: HIV-1 Env of strain 3817.v2.c59 (HIV-1)
[22] = molecular target: HIV-1 Env of strain QH0692.42 (HIV-1)
[23] = molecular target: HIV-1 Env of strain 703357.C02 (HIV-1)
[24] = molecular target: HIV-1 Env of strain 231965.c01 (HIV-1)
[25] = molecular target: HIV-1 Env of strain ZM247v1(Rev-) (HIV-1)

## NIH45-46 IgG (wild type) (antibody)
[1]
  In vitro neutralization IC80: 0.19 µg/mL
[2]
  In vitro neutralization IC80: > 50 µg/mL
[3]
  In vitro neutralization IC80: 0.41 µg/mL
[4]
  In vitro neutralization IC80: 1.21 µg/mL
[5]
  In vitro neutralization IC80: 11.6 µg/mL
[6]
  In vitro neutralization IC80: > 50 µg/mL
[7]
  In vitro neutralization IC80: 0.107 µg/mL
[8]
  In vitro neutralization IC80: > 50 µg/mL
[9]
  In vitro neutralization IC80: > 50 µg/mL
[10]
  In vitro neutralization IC80: 0.155 µg/mL
[11]
  In vitro neutralization IC80: 7.49 µg/mL
[12]
  In vitro neutralization IC80: 31.4 µg/mL
[13]
  In vitro neutralization IC80: 0.127 µg/mL
[14]
  In vitro neutralization IC80: 0.59 µg/mL
[15]
  In vitro neutralization IC80: 0.5 µg/mL
[16]
  In vitro neutralization IC80: 0.033 µg/mL
[17]
  In vitro neutralization IC80: > 50 µg/mL
[18]
  In vitro neutralization IC80: 2.79 µg/mL
[19]
  In vitro neutralization IC80: 1.38 µg/mL
[20]
  In vitro neutralization IC80: 0.196 µg/mL
[21]
  In vitro neutralization IC80: > 50 µg/mL
[22]
  In vitro neutralization IC80: 1.71 µg/mL
[23]
  In vitro neutralization IC80: > 50 µg/mL
[24]
  In vitro neutralization IC80: 0.126 µg/mL
[25]
  In vitro neutralization IC80: 24.5 µg/mL
